Test results as given in patent WO1989007452A1.

Biological target: Campath-1 antigen (partially purified, obtained from a glycolipid extract from human spleen) (human) (UniProt P31358)
Experiment: direct binding ELISA on partially purified Campath-1 antigen coated on microtitre wells; detected with biotin-labelled anti-rat IgG2b; antibody concentration at 50% binding

EC50: 1.01 µg/mL
Substance: RaVHCAMP-RaIgG2B (cloned rat heavy chain variable domain of YTH 34.5HL on rat IgG2b constant domains, with rat kappa light chain) (from UniProt P20761 1-333) (antibody)
